According to FireProtDB (doi:10.1016/j.jmb.2009.04.068):
Several values for one entry are separate records, joined by “and”; a condition that tells them apart may be missing. Equal entries are not always repeated.

B1: Neurotensin receptor type 1, P20789 (parent)
chain: MHLNSSVPQGTPGEPDAQPFSGPQSEMEATFLALSLSNGSGNTSESDTAGPNSDLDVNTDIYSKVLVTAIYLALFVVGTVGNSVTAFTLARKKSLQSLQSTVHYHLGSLALSDLLILLLAMPVELYNFIWVHHPWAFGDAGCRGYYFLRDACTYATALNVASLSVERYLAICHPFKAKTLMSRSRTKKFISAIWLASALLAIPMLFTMGLQNRSGDGTHPGGLVCTPIVDTATVKVVIQVNTFMSFLFPMLVISILNTVIANKLTVMVHQAAEQGRVCTVGTHNGLEHSTFNMTIEPGRVQALRHGVLVLRAVVIAFVVCWLPYHVRRLMFCYISDEQWTTFLFDFYHYFYMLTNALFYVSSAINPILYNLVSANFRQVFLSTLACLCPGWRHRRKKRPTFSRKPNSMSSNHAFSTSATRETLY

Variants of: B1
Settings: Rattus norvegicus; pH 7.4; Heat treatment; Activity; Tris-HCl 50 mM; structure 4BUO; whole UniProt chain shown
In the case of MHLNSSVPQGTPGEPDAQPFSGPQSEMEATFLALSLSNGSGNTSESDTAGPNSDLDVNTDIYSKVLVTAIYLALFVVGTVGNSVTLFTLARKKSLQSLQSTVHYHLGSLALSDLLILLLAMPVELYNFIWVHHPWAFGDAGCRGYYFLRDACTYATALNVASLSVERYLAICHPFKAKTLMSRSRTKKFISAIWLASALLAIPMLFTMGLQNRSGDGTHPGGLVCTPIVDTATVKVVIQVNTFMSFLFPMLVISILNTVIANKLTVMVHQAAEQGRVCTVGTHNGLEHSTFNMTIEPGRVQALRHGVLVLRAVVIAFVVCWLPYHVRRLMFCYISDEQWTTFLFDFYHYFYMLTNALFYVSSAINPILYNLVSANFRQVFLSTLACLCPGWRHRRKKRPTFSRKPNSMSSNHAFSTSATRETLY [A86L], the Tm is reported as 37 °C and 39 °C. For MHLNSSVPQGTPGEPDAQPFSGPQSEMEATFLALSLSNGSGNTSESDTAGPNSDLDVNTDIYSKVLVTAIYLALFVVGTVGNSVTLFTLARKKSLQSLQSTVHYHLGSLALSDLLILLLAMPVELYNFIWVHHPWAFGDAGCRGYYFLRDACTYATALNVASLSVERYLAICHPFKAKTLMSRSRTKKFISAIWLASALLAIPMLFTMGLQNRSGDGTHPGGLVCTPIVDTATVKVVIQVNTFMSFLFPMLVISILNTVIANKLTVMVHQAAEQGRVCTVGTHNGLEHSTFNMTIEPGRVQALRHGVLVLRAVVIAFVVCWLPYHVRRLMFCYISDEQWTTFLFDFYHYFYMLTNALAYVSSAINPILYNLVSANFRQVFLSTLACLCPGWRHRRKKRPTFSRKPNSMSSNHAFSTSATRETLY [A86L F358A], the Tm was 48 °C. MHLNSSVPQGTPGEPDAQPFSGPQSEMEATFLALSLSNGSGNTSESDTAGPNSDLDVNTDIYSKVLVTAIYLALFVVGTVGNSVTLFTLARKKSLQSLQSTVHYHLGSLALSDLLILLLAMPVELYNFIWVHHPWAFGDAGCRGYYFLRDACTYATALNVASLSVERYLAICHPFKAKTLMSRSRTKKFISAIWLASALLAIPMLFTMGLQNRSGDGTHPGGLVCTPIVDTATVKVVIQVNTFMSFLFPMLVISILNTVAANKLTVMVHQAAEQGRVCTVGTHNGLEHSTFNMTIEPGRVQALRHGVLVLRAVVIAFVVCWLPYHVRRLMFCYISDEQWTTALFDFYHYFYMLTNALFYVSSAINPILYNLVSANFRQVFLSTLACLCPGWRHRRKKRPTFSRKPNSMSSNHAFSTSATRETLY [A86L I260A F342A] showed a Tm of 47 °C. For MHLNSSVPQGTPGEPDAQPFSGPQSEMEATFLALSLSNGSGNTSESDTAGPNSDLDVNTDIYSKVLVTAIYLALFVVGTVGNSVTLFTLARKKSLQSLQSTVHYHLGSLALSDLLILLLAMPVELYNFIWVHHPWAFGDAGCRGYYFLRDACTYATALNVASLSVERYLAICHPFKAKTLMSRSRTKKFISAIWLASALLAIPMLFTMGLQNRSGDGTHPGGLVCTPIVDTATVKVVIQVNTFMSFLFPMLVISILNTVAANKLTVMVHQAAEQGRVCTVGTHNGLEHSTFNMTIEPGRVQALRHGVLVLRAVVIAFVVCWLPYHVRRLMFCYISDEQWTTALFDFYHYFYMLTNALAYVSSAINPILYNLVSANFRQVFLSTLACLCPGWRHRRKKRPTFSRKPNSMSSNHAFSTSATRETLY [A86L I260A F342A F358A], the Tm was 50 °C. For MHLNSSVPQGTPGEPDAQPFSGPQSEMEATFLALSLSNGSGNTSESDTAGPNSDLDVNTDIYSKVLVTAIYLALFVVGTVGNSVTAFTLARKKSLQSLQSTVAYHLGSLALSDLLILLLAMPVELYNFIWVHHPWAFGDAGCRGYYFLRDACTYATALNVASLSVERYLAICHPFKAKTLMSRSRTKKFISAIWLASALLAIPMLFTMGLQNRSGDGTHPGGLVCTPIVDTATVKVVIQVNTFMSFLFPMLVISILNTVIANKLTVMVHQAAEQGRVCTVGTHNGLEHSTFNMTIEPGRVQALRHGVLVLRAVVIAFVVCWLPYHVRRLMFCYISDEQWTTFLFDFYHYFYMLTNALFYVSSAINPILYNLVSANFRQVFLSTLACLCPGWRHRRKKRPTFSRKPNSMSSNHAFSTSATRETLY [H103A], the Tm was 34 °C and 36 °C.

Same assay, conditions: Rattus norvegicus; pH 7.4; Thermal; Activity; Tris-HCl 50 mM; structure 4BUO; whole UniProt chain shown
In the case of MHLNSSVPQGTPGEPDAQPFSGPQSEMEATFLALSLSNGSGNTSESDTAGPNSDLDVNTDIYSKVLVTAIYLALFVVGTVGNSVTLFTLARKKSLQSLQSTVHYHLGSLALSDLLILLLAMPVELYNFIWVHHPWAFGDAGCRGYYFLRDACTYATALNVASLSVERYLAICHPFKAKTLMSRSRTKKFISAIWLASALLAIPMLFTMGLQNRSGDGTHPGGLVCTPIVDTATVKVVIQVNTFMSFLFPMLVISILNTVIANKLTVMVHQAAEQGRVCTVGTHNGLEHSTFNMTIEPGRVQALRHGVLVLRAVVIAFVVCWLPYHVRRLMFCYISDEQWTTFLFDFYHYFYMLTNALFYVSSAINPILYNLVSANFRQVFLSTLACLCPGWRHRRKKRPTFSRKPNSMSSNHAFSTSATRETLY [A86L], the Tm is reported as 33 °C and the “change of melting temperature, mutant - wild type (higher = more stable)” value is reported as 8 °C. For MHLNSSVPQGTPGEPDAQPFSGPQSEMEATFLALSLSNGSGNTSESDTAGPNSDLDVNTDIYSKVLVTAIYLALFVVGTVGNSVTLFTLARKKSLQSLQSTVHYHLGSLALSDLLILLLAMPVELYNFIWVHHPWAFGDAGCRGYYFLRDACTYATALNVASLSVERYLAICHPFKAKTLMSRSRTKKFISAIWLASALLAIPMLFTMGLQNRSGDGTHPGGLVCTPIVDTATVKVVIQVNTFMSFLFPMLVISILNTVIANKLTVMVHQAAEQGRVCTVGTHNGLEHSTFNMTIEPGRVQALRHGVLVLRAVVIAFVVCWLPYHVRRLMFCYISDEQWTTFLFDFYHYFYMLTNALAYVSSAINPILYNLVSANFRQVFLSTLACLCPGWRHRRKKRPTFSRKPNSMSSNHAFSTSATRETLY [A86L F358A], the “change of melting temperature, mutant - wild type (higher = more stable)” value was 11 °C and 10 °C.
